Data on 2 molecules can be found in paper PMC9268139, “Conversion of the Native N-Terminal Domain of TDP-43 into a Monomeric Alternative Fold with Lower Aggregation Propensity” (Molecules, 2022).

In data set [1] the target is TDP-43 NTD NTD (Homo sapiens) (UniProt Q13148). In words: AUC. To be noted: cited from earlier work.
Data set [2] deals with the molecule itself. In words: SEC; 0.5 mg/mL (45 µM) NTD loaded, 0.0% SB3-10, Superdex 200 Increase 10/300 GL, 5 mM sodium phosphate, 50 mM NaCl, 1 mM DTT, pH 7.4, 4 °C; calibration with folded standards. Background: In gel filtration, larger molecules generally elute earlier.

For TDP-43 NTD NTD (from UniProt Q13148), in data set [1], the Kd – broadly, the concentration at which binding is half-saturated – is 40 µM.

B1: N-terminal domain (NTD) of TAR DNA-binding protein 43 (TDP-43) (domain or fragment, UniProt Q13148 1-77, looked up)
chain: MSEYIRVTEDENDEPIEIPSEDDGTVLLSTVTAQFPGACGLRYRNPVSQCMRGVRLVEGILHAPDAGWGNLVYVVNY
notes: whole protein has 414 residues; also called TDP-43 NTD; native NTD; source: purified as previously described [24]
For B1, the stoichiometry N (commonly the number of molecules, sites or subunits per partner or assembly) in data set [2] is about 2.
